# Assay results published in IntAct's records for PubMed 9819391.
# How the values were obtained:
# crk_human CRK = crk_human CRK (UniProt P46108)
# src_chick SRC [1] = target: src_chick SRC (UniProt P00523)
# src_chick SRC [2] = target: src_chick SRC (UniProt P00523); remark: listed apart in the source
# crk_human CRK, sequence (P46108 whole entry): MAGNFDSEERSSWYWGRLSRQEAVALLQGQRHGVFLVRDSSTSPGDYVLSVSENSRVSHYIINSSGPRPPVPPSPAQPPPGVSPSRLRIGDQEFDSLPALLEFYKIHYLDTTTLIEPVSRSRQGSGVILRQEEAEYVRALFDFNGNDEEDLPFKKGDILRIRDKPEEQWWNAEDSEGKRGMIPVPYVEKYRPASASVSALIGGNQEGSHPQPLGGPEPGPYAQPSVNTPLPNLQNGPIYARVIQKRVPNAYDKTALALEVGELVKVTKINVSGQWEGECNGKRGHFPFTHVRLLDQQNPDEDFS
# Arf-GAP with SH3 domain, ANK repeat and PH domain-containing protein 1 (Mus musculus), Q9QWY8-1 P910A;P913A, sequence (Q9QWY8 whole entry P910A/P913A, the tested form may be a part): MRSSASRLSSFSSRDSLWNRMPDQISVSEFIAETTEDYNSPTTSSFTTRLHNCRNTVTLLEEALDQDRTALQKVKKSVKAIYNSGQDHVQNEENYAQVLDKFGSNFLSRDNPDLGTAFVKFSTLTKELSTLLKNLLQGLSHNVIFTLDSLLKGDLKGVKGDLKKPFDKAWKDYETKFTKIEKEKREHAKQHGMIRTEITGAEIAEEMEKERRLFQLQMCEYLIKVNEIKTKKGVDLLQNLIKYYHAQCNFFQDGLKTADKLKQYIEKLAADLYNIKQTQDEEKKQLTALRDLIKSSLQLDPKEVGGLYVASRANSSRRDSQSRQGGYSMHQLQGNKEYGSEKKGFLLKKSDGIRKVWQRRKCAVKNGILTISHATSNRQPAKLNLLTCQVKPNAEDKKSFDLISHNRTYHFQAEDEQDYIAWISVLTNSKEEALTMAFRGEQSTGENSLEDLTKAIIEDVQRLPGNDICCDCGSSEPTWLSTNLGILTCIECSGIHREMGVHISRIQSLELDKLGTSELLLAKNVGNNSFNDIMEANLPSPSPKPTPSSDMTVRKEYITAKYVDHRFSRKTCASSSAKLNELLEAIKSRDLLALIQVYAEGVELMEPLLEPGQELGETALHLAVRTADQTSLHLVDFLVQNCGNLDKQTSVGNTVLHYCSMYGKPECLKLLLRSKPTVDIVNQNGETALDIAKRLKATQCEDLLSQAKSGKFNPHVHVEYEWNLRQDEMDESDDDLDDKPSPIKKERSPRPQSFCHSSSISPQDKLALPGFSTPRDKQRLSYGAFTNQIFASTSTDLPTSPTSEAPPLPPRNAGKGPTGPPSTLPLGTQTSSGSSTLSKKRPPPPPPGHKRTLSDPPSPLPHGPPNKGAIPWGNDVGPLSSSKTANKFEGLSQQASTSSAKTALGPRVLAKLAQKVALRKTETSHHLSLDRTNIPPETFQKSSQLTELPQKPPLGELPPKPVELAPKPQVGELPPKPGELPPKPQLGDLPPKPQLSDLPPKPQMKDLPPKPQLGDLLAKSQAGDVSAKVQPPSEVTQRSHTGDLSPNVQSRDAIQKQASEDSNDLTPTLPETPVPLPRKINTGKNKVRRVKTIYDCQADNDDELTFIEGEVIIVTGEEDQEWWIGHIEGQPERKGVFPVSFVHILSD
# Arf-GAP with SH3 domain, ANK repeat and PH domain-containing protein 1 (Mus musculus), Q9QWY8-1 R811A, sequence (Q9QWY8 whole entry R811A, the tested form may be a part): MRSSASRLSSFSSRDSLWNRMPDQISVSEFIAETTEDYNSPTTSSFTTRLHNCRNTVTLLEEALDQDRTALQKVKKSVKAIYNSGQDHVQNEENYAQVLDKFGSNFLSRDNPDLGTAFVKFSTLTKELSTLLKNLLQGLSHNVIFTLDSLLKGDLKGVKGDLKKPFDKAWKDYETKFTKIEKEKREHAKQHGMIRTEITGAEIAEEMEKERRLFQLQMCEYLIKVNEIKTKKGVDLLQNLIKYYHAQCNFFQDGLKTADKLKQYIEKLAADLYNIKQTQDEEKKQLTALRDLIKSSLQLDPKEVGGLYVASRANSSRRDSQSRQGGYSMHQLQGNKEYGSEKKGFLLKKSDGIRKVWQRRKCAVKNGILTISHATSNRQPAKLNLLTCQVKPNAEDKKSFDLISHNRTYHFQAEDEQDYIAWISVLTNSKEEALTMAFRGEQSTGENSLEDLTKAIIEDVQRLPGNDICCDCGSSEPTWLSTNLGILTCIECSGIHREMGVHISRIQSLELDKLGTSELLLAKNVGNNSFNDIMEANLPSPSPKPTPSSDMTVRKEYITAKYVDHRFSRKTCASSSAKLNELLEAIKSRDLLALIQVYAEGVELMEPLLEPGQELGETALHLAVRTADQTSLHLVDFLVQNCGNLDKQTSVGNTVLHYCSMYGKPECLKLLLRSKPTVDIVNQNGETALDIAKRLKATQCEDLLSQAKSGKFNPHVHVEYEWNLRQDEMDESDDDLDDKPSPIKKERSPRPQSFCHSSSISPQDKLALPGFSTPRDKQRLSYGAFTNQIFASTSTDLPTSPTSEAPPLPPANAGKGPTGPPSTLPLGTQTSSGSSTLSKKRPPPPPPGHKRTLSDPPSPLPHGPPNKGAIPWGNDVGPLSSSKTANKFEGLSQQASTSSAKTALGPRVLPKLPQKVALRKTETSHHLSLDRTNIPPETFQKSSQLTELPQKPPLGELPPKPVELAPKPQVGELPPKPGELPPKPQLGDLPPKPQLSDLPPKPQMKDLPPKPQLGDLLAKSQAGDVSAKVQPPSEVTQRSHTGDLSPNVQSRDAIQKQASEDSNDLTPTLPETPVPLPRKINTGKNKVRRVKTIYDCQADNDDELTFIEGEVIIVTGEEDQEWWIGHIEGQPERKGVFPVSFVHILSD
# Arf-GAP with SH3 domain, ANK repeat and PH domain-containing protein 1 (Mus musculus), Q9QWY8-1 R811A;P910A;P913A, sequence (Q9QWY8 whole entry R811A/P910A/P913A, the tested form may be a part): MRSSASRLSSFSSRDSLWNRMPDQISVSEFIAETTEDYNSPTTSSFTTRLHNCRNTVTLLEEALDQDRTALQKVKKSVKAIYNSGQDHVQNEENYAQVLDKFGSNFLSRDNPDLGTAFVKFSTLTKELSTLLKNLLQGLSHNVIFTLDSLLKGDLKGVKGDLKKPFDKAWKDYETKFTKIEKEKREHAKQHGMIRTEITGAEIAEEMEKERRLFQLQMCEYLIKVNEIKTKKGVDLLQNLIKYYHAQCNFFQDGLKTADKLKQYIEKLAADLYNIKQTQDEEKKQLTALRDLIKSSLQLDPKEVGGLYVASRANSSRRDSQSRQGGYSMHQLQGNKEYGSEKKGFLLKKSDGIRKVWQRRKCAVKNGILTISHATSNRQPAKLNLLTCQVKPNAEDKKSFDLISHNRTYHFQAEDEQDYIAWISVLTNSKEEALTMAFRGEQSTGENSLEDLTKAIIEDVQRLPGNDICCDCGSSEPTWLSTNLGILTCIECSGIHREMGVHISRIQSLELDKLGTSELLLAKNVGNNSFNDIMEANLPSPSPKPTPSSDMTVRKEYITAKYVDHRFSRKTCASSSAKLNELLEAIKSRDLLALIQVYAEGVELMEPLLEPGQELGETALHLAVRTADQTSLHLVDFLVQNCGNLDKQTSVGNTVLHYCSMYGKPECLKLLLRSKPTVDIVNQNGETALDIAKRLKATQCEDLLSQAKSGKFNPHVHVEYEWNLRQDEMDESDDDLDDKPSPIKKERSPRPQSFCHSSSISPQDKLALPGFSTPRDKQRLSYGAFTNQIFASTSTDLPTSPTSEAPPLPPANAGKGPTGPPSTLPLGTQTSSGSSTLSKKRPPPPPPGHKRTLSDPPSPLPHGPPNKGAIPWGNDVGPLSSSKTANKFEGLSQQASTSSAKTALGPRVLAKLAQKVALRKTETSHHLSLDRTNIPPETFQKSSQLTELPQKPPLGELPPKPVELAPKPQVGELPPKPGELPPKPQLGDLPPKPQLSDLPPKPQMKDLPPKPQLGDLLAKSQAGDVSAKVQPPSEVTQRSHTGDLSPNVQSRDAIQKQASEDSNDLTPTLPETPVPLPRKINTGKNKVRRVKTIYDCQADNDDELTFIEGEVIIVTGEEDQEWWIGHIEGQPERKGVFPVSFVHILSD
# Arf-GAP with SH3 domain, ANK repeat and PH domain-containing protein 1 (Mus musculus), Q9QWY8-2 R811A;P849A;P853A, sequence (Q9QWY8 other isoform, or with tags, fused parts or gaps R811A;P849A;P853A): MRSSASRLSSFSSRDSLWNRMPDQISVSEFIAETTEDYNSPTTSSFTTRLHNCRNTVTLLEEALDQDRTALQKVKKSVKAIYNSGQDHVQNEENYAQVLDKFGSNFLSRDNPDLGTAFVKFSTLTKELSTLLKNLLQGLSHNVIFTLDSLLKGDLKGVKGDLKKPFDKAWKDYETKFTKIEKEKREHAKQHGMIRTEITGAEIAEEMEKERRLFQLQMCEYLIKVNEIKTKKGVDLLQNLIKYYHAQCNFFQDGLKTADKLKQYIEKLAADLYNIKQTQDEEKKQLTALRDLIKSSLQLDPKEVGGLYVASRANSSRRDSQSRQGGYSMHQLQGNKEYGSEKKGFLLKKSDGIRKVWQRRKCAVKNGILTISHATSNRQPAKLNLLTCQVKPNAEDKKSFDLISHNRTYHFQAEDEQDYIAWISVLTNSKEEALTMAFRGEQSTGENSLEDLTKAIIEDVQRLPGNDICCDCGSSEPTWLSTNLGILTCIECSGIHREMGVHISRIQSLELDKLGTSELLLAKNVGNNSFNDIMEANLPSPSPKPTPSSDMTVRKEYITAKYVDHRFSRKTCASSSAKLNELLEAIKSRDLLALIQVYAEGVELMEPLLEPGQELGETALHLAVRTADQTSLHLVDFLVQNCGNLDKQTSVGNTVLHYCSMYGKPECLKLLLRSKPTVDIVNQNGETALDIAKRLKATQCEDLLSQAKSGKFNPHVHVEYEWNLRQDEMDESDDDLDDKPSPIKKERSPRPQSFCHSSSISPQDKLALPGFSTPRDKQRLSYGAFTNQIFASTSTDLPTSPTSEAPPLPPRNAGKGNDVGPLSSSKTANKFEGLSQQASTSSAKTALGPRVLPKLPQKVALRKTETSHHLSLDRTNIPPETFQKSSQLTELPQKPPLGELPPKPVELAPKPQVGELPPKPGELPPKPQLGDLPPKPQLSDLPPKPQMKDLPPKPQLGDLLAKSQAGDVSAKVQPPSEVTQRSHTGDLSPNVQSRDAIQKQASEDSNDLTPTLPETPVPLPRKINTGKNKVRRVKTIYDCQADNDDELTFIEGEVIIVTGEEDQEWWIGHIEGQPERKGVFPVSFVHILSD
Substance,effect of a mutation on the interaction (crk_human CRK),effect of a mutation on the interaction (src_chick SRC [1]),effect of a mutation on the interaction (src_chick SRC [2])
"Arf-GAP with SH3 domain, ANK repeat and PH domain-containing protein 1 (Mus musculus), Q9QWY8-1 P910A;P913A",decreasing interaction,decreasing interaction,
"Arf-GAP with SH3 domain, ANK repeat and PH domain-containing protein 1 (Mus musculus), Q9QWY8-1 R811A",decreasing interaction,decreasing interaction,
"Arf-GAP with SH3 domain, ANK repeat and PH domain-containing protein 1 (Mus musculus), Q9QWY8-1 R811A;P910A;P913A",disrupting interaction,,
"Arf-GAP with SH3 domain, ANK repeat and PH domain-containing protein 1 (Mus musculus), Q9QWY8-2 R811A;P849A;P853A",,,disrupting interaction
